In assay [1] the target is base-linker-oligodeoxynucleotide conjugate (compound 8). Briefly: phage crosslinked to biotinylated base-linker-oligodeoxynucleotide conjugate, captured on streptavidin beads, titered after DNase I release.
Assay [2] concerns the target base-linker-pTp conjugate (compound 9). Nature of the assay: phage crosslinked to biotinylated base-linker-pTp conjugate, captured on streptavidin beads, titered by direct infection with the beads.
Assay [3] deals with base-linker-oligodeoxynucleotide conjugate (compound 8). Briefly: phage crosslinked to biotinylated base-linker-oligodeoxynucleotide conjugate in EDTA, captured on streptavidin beads, titered by direct infection with the beads.
For assay [4] the target is unchanged. Briefly: phage without acid peptide incubated with biotinylated oligodeoxynucleotide-peptide B conjugate, captured on streptavidin beads, phage titering.

In the case of “acid peptide A-pIII fusion displayed on acid helper phage (M13K07 helper phage with the acidic peptide A and a C-terminal GGC extension inserted at the N-terminus of pIII) (from UniProt P69168 1-3)”, the true immobilization efficiency in assay [1] was found to be 80%. Also, in assay [2], the efficiency of phage immobilization came to 10%. The same substance registered an efficiency of immobilization in assay [3] of 10%.
With “wildtype pIII protein on phage produced with wildtype M13K07 helper phage (from UniProt P69168 19-424)”, the percent of phage immobilized in assay [4] came out at 0.3%.

The record behind these values is US6867010.
